The results in this text go back to patent US7759459B2, “Fluorescent assays for protein kinases” (Albert Einstein College of Medicine of Yeshiva University, priority 2003, dated 2010).

The subject of data set [1] is T1, N=C(N)NCCC[C@H](NC(=O)[C@H](CCCNC(=N)N)NC(=O)[C@H](CCCNC(=N)N)NC(=O)[C@H](CCCNC(=N)N)NC(=O)[C@H](Cc1ccccc1)NC(=O)[C@H](CO)Nc1ccc([N+](=O)[O-])c2nonc12)C(=O)N[C@@H](CCCCN)C(N)=O.
T1 construct: purchased Panvera
Put plainly: Radioactive PKC assay ([γ-32P]ATP). The conditions noted are these: other: PKCγ, 30.0 °C. The format is biochemical, human. The protocol:
Radioactive PKC Assay—Radioactive assays were performed in duplicate at 30° C. The final assay volume totaled 40 μl and contained 62.5 mM HEPES (pH 7.4), 0.75 mM CaCl2, 12.5 mM MgCl2, 1 mM dithiothreitol, 0.5 mM EGTA, 7.5 μg/mL phosphatidylserine, 1.6 μg/mL diacylglycerol, and 10 ng of PKC. […] Phosphorylation reactions were initiated by the addition of 10 μL of PKC from a stock solution (20 mM Tris-HCl at pH 7.5, 1 mM dithiothreitol, 1 mM EDTA, and 0.75 mg/mL bovine serum albumin) into 30 μL of assay buffer containing peptide substrate. Reactions were terminated after 5 min by spotting 25 μL aliquots onto phosphocellulose paper disks (2.1 cm in diameter). After 10 s, the disks were immersed in 10% glacial acetic acid and soaked with occasional stirring for at least 1 h. The acetic acid was decanted and the disks were collectively washed with four volumes of 0.5% H3PO4, 1 volume of water, followed by a final acetone rinse. The disks were air dried and then counted in a Beckman LS scintillation counter.

For data set [2] the test system is unchanged. As to the kind of experiment: Fluorescent PKC assay (spectrofluorimetry). Type of data set: biochemical, human. The following applies: other: PKCγ; Fluorescence; pH 7.4; 30.0 °C. The protocol: Fluorescent PKC assay-Fluorescence assays were performed in triplicate at 30° C. and initiated by addition of ATP to a 100 μL cuvette containing a 50 μL solution of PKC and peptide substrate 2. Final conditions: 62.5 mM HEPES pH 7.4, 3 mM MgCl2, 0.3 mM CaCl2, 0.1 mM EGTA, 1 mM DTT, 0.5 μg/mL phosphatidylserine, 0.1 μg/mL diacylglycerol, 1 mM ATP, and 13 nM PKC. After the addition of ATP, the solution was gently mixed and the time-dependent change in fluorescent intensity (excitation: 520 nm, emission: […]) continuously monitored with a Photon Technology QM-1 spectrofluorimeter.

PKCγ (Homo sapiens): in data set [1], the Michaelis constant (Km) worked out at 5.0 ± 1.0 µM, the kcat came out at 3.5 ± 0.333 s⁻¹ and the specificity constant (kcat/Km) is 700000 ± 150000 M⁻¹ s⁻¹. For the same substance, in data set [2], the Michaelis constant (Km) came to 30 ± 5 µM, the turnover number (kcat) is 3.17 ± 0.667 s⁻¹ and the specificity constant (kcat/Km) amounted to 105000 ± 28300 M⁻¹ s⁻¹.

A word on the Km: it is the substrate concentration at which the rate is half of its maximum. One may read the kcat as the maximal rate divided by the concentration of active sites. For orientation: kcat/Km means the turnover number divided by the Michaelis constant.
